The labels stand for the following.
T1: Human PTK7 (human, UniProt Q13308 31-1070)
T1 sequence: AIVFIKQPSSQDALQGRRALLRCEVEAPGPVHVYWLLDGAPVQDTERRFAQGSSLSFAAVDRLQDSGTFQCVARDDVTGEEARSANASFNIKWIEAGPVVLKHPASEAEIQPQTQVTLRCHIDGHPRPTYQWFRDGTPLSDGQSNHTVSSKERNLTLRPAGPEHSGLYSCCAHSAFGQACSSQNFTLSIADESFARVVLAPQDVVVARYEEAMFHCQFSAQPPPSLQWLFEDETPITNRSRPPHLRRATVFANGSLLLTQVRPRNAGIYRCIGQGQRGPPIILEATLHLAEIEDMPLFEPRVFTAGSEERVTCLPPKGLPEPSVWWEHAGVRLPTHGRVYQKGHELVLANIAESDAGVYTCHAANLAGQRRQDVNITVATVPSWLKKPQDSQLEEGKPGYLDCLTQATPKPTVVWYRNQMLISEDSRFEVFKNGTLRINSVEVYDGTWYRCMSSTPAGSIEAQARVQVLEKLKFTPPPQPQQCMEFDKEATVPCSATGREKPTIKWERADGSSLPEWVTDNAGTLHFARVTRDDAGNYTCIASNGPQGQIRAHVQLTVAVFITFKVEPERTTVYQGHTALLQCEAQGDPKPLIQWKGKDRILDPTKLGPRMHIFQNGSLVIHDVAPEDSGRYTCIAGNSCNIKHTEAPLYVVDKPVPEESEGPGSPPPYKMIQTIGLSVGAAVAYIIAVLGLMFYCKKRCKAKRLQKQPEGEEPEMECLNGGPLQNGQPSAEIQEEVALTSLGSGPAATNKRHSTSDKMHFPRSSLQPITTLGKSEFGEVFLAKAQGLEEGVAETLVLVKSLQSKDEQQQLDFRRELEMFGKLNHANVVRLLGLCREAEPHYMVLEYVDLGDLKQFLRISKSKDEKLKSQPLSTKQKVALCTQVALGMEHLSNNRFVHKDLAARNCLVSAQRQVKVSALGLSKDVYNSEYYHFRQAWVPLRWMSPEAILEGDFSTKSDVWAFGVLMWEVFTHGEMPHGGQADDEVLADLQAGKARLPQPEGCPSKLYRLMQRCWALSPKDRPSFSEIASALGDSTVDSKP

T2: Human PTK7/CCK4 Protein, His Tag, Acro Biosystems PT7-H52H3 (human, UniProt Q13308 31-704)
T2 construct: bought protein; also called Human PTK7 Protein, His Tag, Acro Biosystems; not shown: His tag
T2 sequence: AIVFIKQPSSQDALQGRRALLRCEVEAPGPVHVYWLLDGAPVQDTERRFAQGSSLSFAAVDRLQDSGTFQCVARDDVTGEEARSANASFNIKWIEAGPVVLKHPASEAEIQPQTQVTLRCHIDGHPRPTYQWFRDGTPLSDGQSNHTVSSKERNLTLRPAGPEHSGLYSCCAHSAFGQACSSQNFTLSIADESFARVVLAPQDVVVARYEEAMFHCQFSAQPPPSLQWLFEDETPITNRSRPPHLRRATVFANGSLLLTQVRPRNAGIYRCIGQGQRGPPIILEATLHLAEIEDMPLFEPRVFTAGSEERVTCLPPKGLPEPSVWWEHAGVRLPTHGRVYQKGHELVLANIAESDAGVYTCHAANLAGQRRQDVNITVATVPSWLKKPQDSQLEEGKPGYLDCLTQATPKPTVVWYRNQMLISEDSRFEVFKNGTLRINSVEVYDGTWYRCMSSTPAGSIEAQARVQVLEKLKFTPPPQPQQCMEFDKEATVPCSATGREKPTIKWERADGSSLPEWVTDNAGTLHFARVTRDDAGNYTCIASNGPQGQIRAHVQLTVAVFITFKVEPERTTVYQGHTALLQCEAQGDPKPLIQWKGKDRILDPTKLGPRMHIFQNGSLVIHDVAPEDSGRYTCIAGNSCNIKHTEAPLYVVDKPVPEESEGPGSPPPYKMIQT

B1: MYT10952 (antibody, V domains shown)
VH: EVQLVESGGGLVQPGGSLRLSCTASGHSLSSYAMGWVRQAPGKGLEWVGFINAGGNTYYANWAKGRFTISRDTSKNTVYLQMNSLRAEDTAVYFCARRYSRASGWYDLWGQGTLVTVSS
VL: EIVMTQSPSTLSASVGDRVIITCQASQSISSYLAWYQQKPGKAPKLLIYAASTLASGVPSRFSGSGSGAEFTLTISSLQPDDFATYYCQSYSYSSGIDYGDVFGQGTKLTVL
B2: MYT10955 (antibody, V domains shown)
VH: B1 VH with H27F, S30H
VL: B1 VL
B3: MYT10989 (antibody, V domains shown)
VH: B1 VH with H27F, L108H
VL: B1 VL
B4: MYT11017 (antibody, V domains shown)
VH: B1 VH with H27F
VL: B1 VL with G96H
B5: MYT11005 (antibody, V domains shown)
VH: B1 VH with H27F
VL: B1 VL with S52H
B6: MYT11033 (antibody, V domains shown)
VH: EVQLVESGGGLVQPGGSLRLSCTASGLSLSSHWMSWVRQAPGKGLEWVGVISAGGNTYYANWAKGRFTISRDTSKNTVYLQMNSLRAEDTAVYFCARGDDGYTNAAYVSNLWGQGTLVTVSS
VL: EIVMTQSPSTLSASVGDRVIITCQASQSISSWLSWYQQKPGKAPKLLIYKASTLASGVPSRFSGSGSGAEFTLTISSLQPDDFATYYCQSYFDSTTIAFGQGTKLTVL
B7: MYT11058 (antibody, V domains shown)
VH: B6 VH with H32Y, G101H
VL: B6 VL
B8: MYT11056 (antibody, V domains shown)
VH: B6 VH with H32Y, D99H
VL: B6 VL
B9: MYT11069 (antibody, V domains shown)
VH: B6 VH with H32Y, F94Y
VL: B6 VL
B10: MYT11068 (antibody, V domains shown)
VH: B6 VH with H32Y, L111H
VL: B6 VL
B11: MYT11053 (antibody, V domains shown)
VH: B6 VH with H32Y, A96H
VL: B6 VL
B12: MYT11081 (antibody, V domains shown)
VH: B6 VH with H32Y
VL: B6 VL with L33H
B13: MYT11059 (antibody, V domains shown)
VH: B6 VH with H32Y, Y102H
VL: B6 VL
B14: MYT11078 (antibody, V domains shown)
VH: B6 VH with H32Y
VL: B6 VL with S30H
B15: MYT11063 (antibody, V domains shown)
VH: B6 VH with H32Y, A106H
VL: B6 VL
B16: MYT11079 (antibody, V domains shown)
VH: B6 VH with H32Y
VL: B6 VL with S31H
B17: MYT10899 (antibody, V domains shown)
VH: EVQLVESGGGLVQPGGSLRLSCTASGFSLSNYVMNWVRQAPGKGLEWVGIIDSHGSTYYASWAKGRFTISRDTSKNTVYLQMNSLRAEDTAVYFCARGLYLWGQGTLVTVSS
VL: EIVMTQSPSTLSASVGDRVIITCQSSQSVYNNNLLAWYQQKPGKAPKLLIYYTSNLASGVPSRFSGSGSGAEFTLTISSLQPDDFATYYCQGGYNGNIYAFGQGTKLTVL
B18: MYT10917 (antibody, V domains shown)
VH: B17 VH with H54S, F94Y
VL: B17 VL
B19: MYT11376 (antibody, V domains shown)
VH: EVQLVESGGGLVQPGGSLRLSCTASGIDLSNYAVIWVRQAPGKGLEWVGIIYTYDTTYYANWAKGRFTISRDTSKNTVYLQMNSLRAEDTAVYFCARSFSDISDLIHLWGQGTLVTVSS
VL: EIVMTQSPSTLSASVGDRVIITCQASQSLYNNKDLAWYQQKPGKAPKLLIYEASKLASGVPSRFSGSGSGAEFTLTISSLQPDDFATYYCLGEFSCGSGDCLAFGQGTKLTVL
notes: IgG
B20: MYT11398 (antibody, V domains shown)
VH: B19 VH with H107K
VL: B19 VL with S54H
notes: IgG
B21: MYT11392 (antibody, V domains shown)
VH: B19 VH with H107K
VL: B19 VL with K33H
notes: IgG
B22: MYT11396 (antibody, V domains shown)
VH: B19 VH with H107K
VL: B19 VL with E52H
notes: IgG
B23: MYT11410 (antibody, V domains shown)
VH: B19 VH with H107K
VL: B19 VL with G99H
notes: IgG
B24: MYT11393 (antibody, V domains shown)
VH: B19 VH with H107K
VL: B19 VL with D34H
notes: IgG
B25: MYT11390 (antibody, V domains shown)
VH: B19 VH with H107K
VL: B19 VL with N31H
notes: IgG
B26: MYT11394 (antibody, V domains shown)
VH: B19 VH with H107K
VL: B19 VL with L35H
notes: IgG
B27: MYT11409 (antibody, V domains shown)
VH: B19 VH with H107K
VL: B19 VL with S98H
notes: IgG

Substitutions are numbered along the chain they refer to.

One test has as its target T1, Human PTK7. The test is described as follows: cell-based or functional assay.
For B1, the “Internalization, FOW @ 25 nM (fold over the wildtype, parental antibody)” value was 1.06 fold over parental antibody.

As to B2, the “Internalization, FOW @ 25 nM (fold over the wildtype, parental antibody)” value is 1.05 fold over parental antibody. Consider B3, for which the “Internalization, FOW @ 25 nM (fold over the wildtype, parental antibody)” value was 1.09 fold over parental antibody. On to B4, for which the “Internalization, FOW @ 25 nM (fold over the wildtype, parental antibody)” value was 1.2 fold over parental antibody.

As for B5, the “Internalization, FOW @ 25 nM (fold over the wildtype, parental antibody)” value is 1.05 fold over parental antibody. Same read-out and setting: for B6 the value was 1.19 fold over parental antibody; for B7, 1.26 fold over parental antibody.

In the case of B8, the “Internalization, FOW @ 25 nM (fold over the wildtype, parental antibody)” value was 1.1 fold over parental antibody.

With B9, the “Internalization, FOW @ 25 nM (fold over the wildtype, parental antibody)” value is 1.22 fold over parental antibody. With B10, the “Internalization, FOW @ 25 nM (fold over the wildtype, parental antibody)” value was 1.22 fold over parental antibody.

As to B11, the “Internalization, FOW @ 25 nM (fold over the wildtype, parental antibody)” value is 1.25 fold over parental antibody. Consider B12, for which the “Internalization, FOW @ 25 nM (fold over the wildtype, parental antibody)” value was 1.22 fold over parental antibody. In the case of B13, the “Internalization, FOW @ 25 nM (fold over the wildtype, parental antibody)” value was 1.27 fold over parental antibody. As for B14, the “Internalization, FOW @ 25 nM (fold over the wildtype, parental antibody)” value is 1.24 fold over parental antibody. Take B15: the “Internalization, FOW @ 25 nM (fold over the wildtype, parental antibody)” value was 2.04 fold over parental antibody.

As to B16, the “Internalization, FOW @ 25 nM (fold over the wildtype, parental antibody)” value was 1.2 fold over parental antibody. For the molecule B17, the “Internalization, FOW @ 25 nM (fold over the wildtype, parental antibody)” value is 1.14 fold over parental antibody. In the case of B18, the “Internalization, FOW @ 25 nM (fold over the wildtype, parental antibody)” value is 1.29 fold over parental antibody.

Another test addresses T2, Human PTK7/CCK4 Protein, His Tag, Acro …. Kind of test: BLI, antibody on anti-human Fc sensor, 50 nM PTK7. In general terms: In BLI a coated tip is dipped into the sample, and binding shifts an interference pattern.
As for B19, the binding result is reported as “binds”. As for B20, the binding result is “binds”. Regarding B21, the binding result is “binds”. As to B22, the binding result is given as “binds”. Take B23: the binding result is reported as “binds”.

In the case of B24, the binding result is “binds”. In the case of B25, the binding result is “binds”.

B26: the binding result is “binds”. In the case of B27, the binding result is “binds”.

For the origin of these results see patent publication US20260209386A1 (MYTHIC THERAPEUTICS, published 2026).
